Laboratory results: patent US8273357B2, “Antigen-carbohydrate conjugates” (Massachusetts Institute of Technology, priority 2004, dated 2012)

B1: (OVA)-3-1: ovalbumin modified via SMCC with nonasaccharide 3-1, average of three saccharides per OVA (conjugate)
chain: GSIGAASMEFCFDVFKELKVHHANENIFYCPIAIMSALAMVYLGAKDSTRTQINKVVRFDKLPGFGDSIEAQCGTSVNVHSSLRDILNQITKPNDVYSFSLASRLYAEERYPILPEYLQCVKELYRGGLEPINFQTAADQARELINSWVESQTNGIIRNVLQPSSVDSQTAMVLVNAIVFKGLWEKAFKDEDTQAMPFRVTEQESKPVQMMYQIGLFRVASMASEKMKILELPFASGTMSMLVLLPDEVSGLEQLESIINFEKLTEWTSSNVMEERKIKVYLPRMKMEEKYNLTSVLMAMGITDVFSSSANLSGISSAESLKISQAVHAAHAEINEAGREVVGSAEAGVDAASVSEEFRADHPFLFCIKHIATNAVLFFGRCVSP

Key:
langerin = langerin (Homo sapiens, UniProt Q9UJ71); conditions: solid-phase binding studies; cited from earlier work
[1] = test system: OTI (CD8+) T cells in unfractionated splenocytes; assay: Antigen presentation assay (MHC class I), unfractionated OTI splenocytes, [3H]thymidine T cell proliferation; format: cell-based, mouse
Procedure: FIGS. 3A and 3B are graphs showing that nonasaccharide 3-1-promoted presentation via MHC class I pathway for presentation to CD8^+ T cells. […] Unfractionated OTI splenocytes (3×10^5/well) were incubated with graded doses of OVA±(OVA)-3-1 (50 ng mL^−1) or (OVA)-3-1±(BSA)-3-1 (10 μg mL^−1). Incubations were performed for seventy-two hours with [^3H]thymidine (1 μCi) added for the last twelve hours. FIG. 3B is a graph showing that the monosaccharide mannose 3-6 targets a different receptor than 3-1. OTII splenocytes were incubated with graded doses of monosaccharide-modified OVA±(BSA)-3-1 and T cell proliferation was measured as described for FIG. 3A. Values present the mean of triplicate measurements.
Accessing the transporter of antigenic peptides (TAP) and thereby achieving cross-presentation of antigen by dendritic cells to MHC class I restricted CD8+ T cells led to efficient stimulation of these T cells and, in the steady state, their apoptotic deletion from the T cell repertoire^3. To determine if the receptor promoting (OVA)-3-1 uptake can process proteins through the MHC class I pathway, (OVA)-3-1 and OVA were incubated with unfractionated splenocytes isolated from OTI (CD8^+) mice. The T cells from transgenic OTI mice recognized an eight amino acid residue sequence (SIINFEKL (SEQ ID NO: 14)) derived from OVA and were therefore utilized to gauge the efficiency of DC presentation of MHC class I antigenic peptides. A moderate (10-fold) increase in the efficiency of MHC class I presentation with (OVA)-3-1 as compared to OVA alone was observed (FIG. 3A).
Pooled inguinal lymph nodes were dissociated in 10% Fetal Bovine Serum RPMI (supplemented with 2 mM L-glutamine) and either mechanically dissociated between two glass slides or, to improve the overall cell yield, incubated in the presence of collagenase (Boehringer) and EDTA for 25 minutes at 37° C./5% CO2 to dissociate DC-T cell clusters. For antigen presentation assays with whole splenocytes, isolated spleens were injected with collagenase/EDTA, gently teased apart and incubated as described above. […]

Sequence of langerin (Q9UJ71 whole entry, species assumed): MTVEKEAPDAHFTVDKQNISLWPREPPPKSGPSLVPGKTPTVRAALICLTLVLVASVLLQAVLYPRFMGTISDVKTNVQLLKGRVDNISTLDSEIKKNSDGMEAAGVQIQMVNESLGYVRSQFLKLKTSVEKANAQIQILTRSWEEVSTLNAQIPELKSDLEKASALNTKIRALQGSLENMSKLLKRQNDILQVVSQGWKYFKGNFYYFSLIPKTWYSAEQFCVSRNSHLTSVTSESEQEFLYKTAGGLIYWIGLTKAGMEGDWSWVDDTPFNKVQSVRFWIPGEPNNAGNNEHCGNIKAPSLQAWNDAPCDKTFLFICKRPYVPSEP

Molecule	binding by langerin (langerin)	direct activation of OTI T cells ([1]; (OVA)-3-1 50 ng mL^−1 added to OVA)	increase in the efficiency of MHC class I presentation as compared to OVA alone ([1]; OTI splenocytes) [fold]	presentation of antigenic peptides to CD8+ T cells ([1]; OTI splenocytes, graded doses)
mBSA: BSA modified with approximately 25 mannose residues per protein molecule [reference compound]	bound by langerin	–	–	–
B1	–	did not achieve this enhancement via direct activation of T cells	10	enhanced presentation
